From patent US10428140B2, “Anti-EphA4 antibody” (EISAI R&D MANAGEMENT CO., LTD., priority 2015, dated 2019)

T1: human EphA3 (Homo sapiens, UniProt P29320)
T1 construct: a protein of the extracellular region of each human Eph receptor fused with the SEAP protein and the His tag; made in house; host or cells: Expi293F cells (culture supernatant)
T1 sequence (P29320 21-541 limits assumed): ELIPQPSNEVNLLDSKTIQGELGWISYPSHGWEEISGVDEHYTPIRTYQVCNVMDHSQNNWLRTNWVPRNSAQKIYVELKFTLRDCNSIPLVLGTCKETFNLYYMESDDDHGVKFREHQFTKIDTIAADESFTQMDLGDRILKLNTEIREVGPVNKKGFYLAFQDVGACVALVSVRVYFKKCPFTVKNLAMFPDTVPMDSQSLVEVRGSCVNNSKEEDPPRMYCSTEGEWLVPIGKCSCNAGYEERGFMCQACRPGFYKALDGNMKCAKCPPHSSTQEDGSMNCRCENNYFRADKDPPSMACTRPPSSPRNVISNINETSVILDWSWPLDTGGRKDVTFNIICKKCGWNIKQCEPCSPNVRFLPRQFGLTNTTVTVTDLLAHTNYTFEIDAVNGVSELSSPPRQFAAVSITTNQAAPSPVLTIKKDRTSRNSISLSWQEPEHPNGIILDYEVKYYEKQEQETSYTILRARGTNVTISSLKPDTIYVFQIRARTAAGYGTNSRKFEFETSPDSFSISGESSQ

T2: human EphA7 (Homo sapiens, UniProt Q15375)
T2 construct: a protein of the extracellular region of each human Eph receptor fused with the SEAP protein and the His tag; made in house; host or cells: Expi293F cells (culture supernatant)
T2 sequence (Q15375 28-555 limits assumed): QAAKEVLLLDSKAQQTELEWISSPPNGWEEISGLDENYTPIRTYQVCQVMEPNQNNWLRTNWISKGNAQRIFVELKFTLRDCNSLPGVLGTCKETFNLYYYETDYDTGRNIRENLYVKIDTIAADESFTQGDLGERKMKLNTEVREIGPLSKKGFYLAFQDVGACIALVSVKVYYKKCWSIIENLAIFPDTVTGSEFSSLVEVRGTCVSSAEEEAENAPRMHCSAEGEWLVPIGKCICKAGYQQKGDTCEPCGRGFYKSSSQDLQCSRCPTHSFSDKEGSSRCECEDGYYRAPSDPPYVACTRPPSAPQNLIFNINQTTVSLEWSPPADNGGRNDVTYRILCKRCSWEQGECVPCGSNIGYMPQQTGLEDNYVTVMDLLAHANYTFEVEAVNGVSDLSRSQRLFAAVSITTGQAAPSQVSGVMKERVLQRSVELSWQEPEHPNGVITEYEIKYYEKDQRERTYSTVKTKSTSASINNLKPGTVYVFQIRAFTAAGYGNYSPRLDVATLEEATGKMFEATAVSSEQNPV

T3: human EphB3 (Homo sapiens, UniProt P54753)
T3 construct: a protein of the extracellular region of each human Eph receptor fused with the SEAP protein and the His tag; made in house; host or cells: Expi293F cells
T3 sequence (P54753 34-559 limits assumed): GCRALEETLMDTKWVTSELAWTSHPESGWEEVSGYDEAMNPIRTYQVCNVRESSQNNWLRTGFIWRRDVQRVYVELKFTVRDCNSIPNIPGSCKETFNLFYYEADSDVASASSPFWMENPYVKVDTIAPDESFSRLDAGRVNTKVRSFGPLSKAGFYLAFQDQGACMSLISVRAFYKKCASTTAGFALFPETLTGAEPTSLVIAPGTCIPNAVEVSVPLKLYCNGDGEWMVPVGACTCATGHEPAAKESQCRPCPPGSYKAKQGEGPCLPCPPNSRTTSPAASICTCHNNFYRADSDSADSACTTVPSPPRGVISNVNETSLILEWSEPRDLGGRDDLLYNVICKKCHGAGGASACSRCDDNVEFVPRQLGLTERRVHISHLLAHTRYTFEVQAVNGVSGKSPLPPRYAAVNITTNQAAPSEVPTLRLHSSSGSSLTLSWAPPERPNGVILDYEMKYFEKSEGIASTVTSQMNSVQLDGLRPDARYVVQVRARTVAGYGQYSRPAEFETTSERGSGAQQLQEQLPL


What was measured:
Experiment in all cases: Selectivity ELISA of humanized antibodies for human Eph receptor
Format in all cases: binding
Settings in all cases: coated protein 1 nM
SEAP-His = SEAP-His (Homo sapiens, UniProt P05187)
Procedure, shortened: (§1)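 His-tagged SEAP fusions of each human Eph receptor extracellular region, from Expi293F supernatants, were captured at 1 nM on anti-His-coated wells. Humanized antibody was bound 1 h at room temperature, then detected with HRP […] IgG. TMB development was acid-stopped and read at 450 nm.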

human EphA3 = target: T1, human EphA3
Procedure, shortened: as §1

human EphA5 = target: T4, human EphA5 (Homo sapiens, UniProt P54756)
T4 construct: a protein of the extracellular region of each human Eph receptor fused with the SEAP protein and the His tag; made in house; host or cells: Expi293F cells (culture supernatant)
Procedure, shortened: as §1

human EphA7 = target: T2, human EphA7
Procedure, shortened: as §1

human EphB3 = target: T3, human EphB3
Procedure, shortened: as §1

Sequence of SEAP-His (P05187 23-511 limits assumed): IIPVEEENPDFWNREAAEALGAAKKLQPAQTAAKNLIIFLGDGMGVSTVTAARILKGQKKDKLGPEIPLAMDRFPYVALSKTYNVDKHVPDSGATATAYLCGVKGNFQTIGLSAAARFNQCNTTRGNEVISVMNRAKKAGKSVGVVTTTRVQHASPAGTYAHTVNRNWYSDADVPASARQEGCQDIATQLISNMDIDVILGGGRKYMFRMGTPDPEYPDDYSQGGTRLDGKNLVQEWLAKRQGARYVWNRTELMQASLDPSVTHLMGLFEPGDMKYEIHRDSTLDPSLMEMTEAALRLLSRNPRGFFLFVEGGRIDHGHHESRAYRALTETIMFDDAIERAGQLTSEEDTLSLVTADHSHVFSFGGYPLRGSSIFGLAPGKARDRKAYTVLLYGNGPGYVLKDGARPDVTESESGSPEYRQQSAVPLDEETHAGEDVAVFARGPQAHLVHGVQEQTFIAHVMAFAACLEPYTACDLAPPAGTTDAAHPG
T4 sequence (P54756 25-573 limits assumed): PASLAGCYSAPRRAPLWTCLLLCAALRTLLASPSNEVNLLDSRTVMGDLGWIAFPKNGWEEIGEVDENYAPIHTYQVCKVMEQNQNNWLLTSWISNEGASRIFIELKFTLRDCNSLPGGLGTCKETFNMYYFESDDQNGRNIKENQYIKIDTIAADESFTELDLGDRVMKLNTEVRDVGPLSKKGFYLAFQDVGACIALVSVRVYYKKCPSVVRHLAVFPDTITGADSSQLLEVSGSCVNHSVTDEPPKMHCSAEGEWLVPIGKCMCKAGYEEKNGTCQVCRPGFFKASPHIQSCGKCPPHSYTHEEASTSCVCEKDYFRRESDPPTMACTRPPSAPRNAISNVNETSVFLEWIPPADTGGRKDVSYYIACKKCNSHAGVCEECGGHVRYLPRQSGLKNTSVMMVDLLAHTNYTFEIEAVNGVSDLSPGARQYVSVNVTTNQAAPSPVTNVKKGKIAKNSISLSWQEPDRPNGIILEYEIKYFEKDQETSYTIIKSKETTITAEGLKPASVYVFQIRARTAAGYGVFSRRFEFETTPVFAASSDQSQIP

Molecule | SEAP-His: absorbance at 450 nm, percentage with respect to hEphA4-SEAP-His as 100% (SEAP-His) [%] | hEphA3-SEAP-: absorbance at 450 nm, percentage with respect to hEphA4-SEAP-His as 100% (human EphA3) [%] | hEphA5-SEAP-: absorbance at 450 nm, percentage with respect to hEphA4-SEAP-His as 100% (human EphA5) [%] | hEphA7-SEAP-: absorbance at 450 nm, percentage with respect to hEphA4-SEAP-His as 100% (human EphA7) [%] | hEphB3-SEAP-: absorbance at 450 nm, percentage with respect to hEphA4-SEAP-His as 100% (human EphB3) [%]
75 (antibody, synthetic humanized antibody heavy chain variable region sequence; synthetic humanized antibody light chain variable region sequence; synthetic antibody constant region sequence) VH: QVQLVQSGSELKKPGASVKVSCKASGYTFTDYSMHWVRQAPGQGLEWMGWINTETGEPTYAQGFTGRFVFSLDTSVSTAYLQISSLKAEDTAVYYCARIPLYYYGSRYWYFDVWGQGTTVTVSS VL: DIQMTQSPSSLSASVGDRVTITCRASENIYRNLAWYQQKPGKAPKLLVYAATNLADGVPSRFSGSGSGTDYTLTISSLQPEDFATYYCQHFWGTPWTFGQGTKVEIK ASTKGPSVFPLAPSSKSTSGGTAALGCLVKDYFPEPVTVSWNSGALTSGVHTFPAVLQSSGLYSLSSVVTVPSSSLGTQTYICNVNHKPSNTKVDKRVEPKSCDKTHTCPPCPAPPAAAPSVFLFPPKPKDTLMISRTPEVTCVVVDVSHEDPEVQFNWYVDGVEVHNAKTKPREEQFNSTFRVVSVLTVVHQDWLNGKEYKCKVSNKGLPAPIEKTISKTKGQPREPQVYTLPPSREEMTKNQVSLTCLVKGFYPSDIAVEWESNGQPENNYKTTPPMLDSDGSFFLYSKLTVDKSRWQQGNVFSCSVMHEALHNHYTQKSLSLSPG | 4.4 | 4.8 | 4.7 | 4.7 | 4.7
133 (antibody, V domains shown, synthetic humanized antibody heavy chain variable region sequence; synthetic humanized antibody light chain variable region sequence) VH: QVQLVQSGSELKKPGASVKVSCKASGYTFTDYSMHWVRQAPGQGLEWMGWINTETGEPTYAQGFTGRFVFSLDTSVSTAYLQISSLKAEDTAVYYCARIPLYYYGSRYWYFDVWGQGTTVTVSS VL: EIVMTQSPATLSVSPGERATLSCRASENIYRNLAWYQQKPGQSPRLLIYAATNLADGIPARFSGSGSGTEYTLTISSLQSEDFAVYYCQHFWGTPWTFGQGTKVEIK | 4.7 | 5.0 | 4.7 | 4.6 | 4.7
132 (antibody, V domains shown, synthetic humanized antibody heavy chain variable region sequence; synthetic humanized antibody light chain variable region sequence) VH: QIQLVQSGSELKKPGASVKVSCKASGYTFTDYSMHWVRQAPGQGLKWMGWINTETGEPTYAQGFTGRFVFSLDTSVSTAYLQISSLKAEDTAVYYCARIPLYYYGSRYWYFDVWGQGTTVTVSS VL: EIVMTQSPATLSVSPGERATLSCRASENIYRNLAWYQQKPGQSPRLLIYAATNLADGIPARFSGSGSGTEYTLTISSLQSEDFAVYYCQHFWGTPWTFGQGTKVEIK | 4.9 | 4.8 | 4.7 | 4.5 | 4.7

Now from value to molecule:

SEAP-His: absorbance at 450 nm, percentage with respect to hEphA4-SEAP-His as 100% (SEAP-His) [%] | hEphA3-SEAP-: absorbance at 450 nm, percentage with respect to hEphA4-SEAP-His as 100% (human EphA3) [%] | hEphA5-SEAP-: absorbance at 450 nm, percentage with respect to hEphA4-SEAP-His as 100% (human EphA5) [%] | hEphA7-SEAP-: absorbance at 450 nm, percentage with respect to hEphA4-SEAP-His as 100% (human EphA7) [%] | hEphB3-SEAP-: absorbance at 450 nm, percentage with respect to hEphA4-SEAP-His as 100% (human EphB3) [%] | Molecule
6.3 | 6.2 | 6.5 | 6.1 | 6.2 | 160 (antibody, V domains shown, synthetic humanized antibody heavy chain variable region sequence; synthetic humanized antibody light chain variable region sequence) VH: QIQLVQSGSELKKPGASVKVSCKASGYTFTDYSMHWVRQAPGQGLKWMGWINTETGEPTYADDFKGRFVFSLDTSVSTAYLQISSLKAEDTAVYYCARIPLYYYGSRYWYFDVWGQGTTVTVSS VL: DIQMTQSPSSLSASVGDRVTITCRASENIYRNLAWYQQKPGKAPQLLLYAATNLADGVPSRFSGSGSGTDYTLTISSLQPEDFATYYCQHFWGTPWTFGQGTKVEIK
5.3 | 5.0 | 5.0 | 5.2 | 5.0 | 135 (antibody, V domains shown, synthetic humanized antibody heavy chain variable region sequence; synthetic humanized antibody light chain variable region sequence) VH: QVQLVQSGSELKKPGASVKVSCKASGYTFTDYSMHWVRQAPGQGLEWMGWINTETGEPTYADDFKGRFVFSLDTSVSTAYLQISSLKAEDTAVYYCARIPLYYYGSRYWYFDVWGQGTTVTVSS VL: EIVMTQSPATLSVSPGERATLSCRASENIYRNLAWYQQKPGQSPRLLIYAATNLADGIPARFSGSGSGTEYTLTISSLQSEDFAVYYCQHFWGTPWTFGQGTKVEIK
5.1 | 5.0 | 5.2 | 5.1 | 5.2 | 134 (antibody, V domains shown, synthetic humanized antibody heavy chain variable region sequence; synthetic humanized antibody light chain variable region sequence) VH: QVQLVQSGSELKKPGASVKVSCKASGYTFTDYSMHWVRQAPGQGLKWMGWINTETGEPTYAQGFTGRFVFSLDTSVSTAYLQISSLKAEDTAVYYCARIPLYYYGSRYWYFDVWGQGTTVTVSS VL: EIVMTQSPATLSVSPGERATLSCRASENIYRNLAWYQQKPGQSPRLLIYAATNLADGIPARFSGSGSGTEYTLTISSLQSEDFAVYYCQHFWGTPWTFGQGTKVEIK
